For assay [1], the target named is CgnB (Chondromyces crocatus CM c5). The assay can be described thus: MST; microscale thermophoresis of two components; which one was titrated is told only in Fig. 3c.
The target of assay [2] is CgnE (Chondromyces crocatus CM c5). Described as above.
Sequence of CgnE (Chondromyces crocatus CM c5) (main, as listed by the source): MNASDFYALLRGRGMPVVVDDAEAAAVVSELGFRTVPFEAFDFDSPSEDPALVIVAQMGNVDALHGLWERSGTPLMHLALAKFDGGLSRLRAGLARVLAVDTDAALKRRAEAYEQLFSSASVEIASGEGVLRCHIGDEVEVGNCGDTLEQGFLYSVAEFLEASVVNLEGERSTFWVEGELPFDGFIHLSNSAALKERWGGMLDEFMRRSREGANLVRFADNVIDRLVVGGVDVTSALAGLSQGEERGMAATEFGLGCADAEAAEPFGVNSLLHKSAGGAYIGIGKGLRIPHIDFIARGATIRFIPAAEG

What is called Kd is the equilibrium constant for the complex coming apart. MKKTIKQISAGDRSKKGNIYW (modifications not checked) [CgnA, crocagin precursor peptide]: the Kd in assay [1] is 10.5 µM; in assay [2], 1.8 µM.
